These results are taken from patent US20260258127A1 (YING MAI DE MEDICAL TECHNOLOGY GUANGDONG, published 2026).

B1: anti-CD3 antibody mutant VH-D68C conjugated with Molecule I (+20K) (antibody, V domains shown)
VH: EVQLVESGGGLVQPGGSLRLSCAASGFTFSTYAMNWVRQAPGKGLEWVGRIRSKYNNYATYYADSVKCRFTISRDDSKNSLYLQMNSLKTEDTAVYYCARHGNFGNSYVSWFAYWGQGTLVTVSS
VL: QTVVTQEPSLTVSPGGTVTLTCRSSTGAVTTSNYANWVQQKPGQAPRGLIGGTNKRAPGVPARFSGSLLGDKAALTLLGAQPEDEAEYFCALWYSNLWVFGGGTKLTVL
modifications: Cys 68 conjugated with Molecule I (+20K)
notes: also called VH-68 D68 (+20K)
B2: anti-CD3 antibody mutant VH-F104C conjugated with Molecule I (+20K) (antibody, V domains shown)
VH: EVQLVESGGGLVQPGGSLRLSCAASGFTFSTYAMNWVRQAPGKGLEWVGRIRSKYNNYATYYADSVKDRFTISRDDSKNSLYLQMNSLKTEDTAVYYCARHGNCGNSYVSWFAYWGQGTLVTVSS
VL: QTVVTQEPSLTVSPGGTVTLTCRSSTGAVTTSNYANWVQQKPGQAPRGLIGGTNKRAPGVPARFSGSLLGDKAALTLLGAQPEDEAEYFCALWYSNLWVFGGGTKLTVL
modifications: Cys 104 conjugated with Molecule I (+20K)
notes: also called VH-104 F104 (+20K)
B3: anti-CD3 antibody mutant VH-F112C conjugated with Molecule I (+20K) (antibody, V domains shown)
VH: EVQLVESGGGLVQPGGSLRLSCAASGFTFSTYAMNWVRQAPGKGLEWVGRIRSKYNNYATYYADSVKDRFTISRDDSKNSLYLQMNSLKTEDTAVYYCARHGNFGNSYVSWCAYWGQGTLVTVSS
VL: QTVVTQEPSLTVSPGGTVTLTCRSSTGAVTTSNYANWVQQKPGQAPRGLIGGTNKRAPGVPARFSGSLLGDKAALTLLGAQPEDEAEYFCALWYSNLWVFGGGTKLTVL
modifications: Cys 112 conjugated with Molecule I (+20K)
notes: also called VH-112 F112 (+20K)
B4: anti-CD3 antibody mutant VH-M34C conjugated with Molecule I (+20K) (antibody, V domains shown)
VH: EVQLVESGGGLVQPGGSLRLSCAASGFTFSTYACNWVRQAPGKGLEWVGRIRSKYNNYATYYADSVKDRFTISRDDSKNSLYLQMNSLKTEDTAVYYCARHGNFGNSYVSWFAYWGQGTLVTVSS
VL: QTVVTQEPSLTVSPGGTVTLTCRSSTGAVTTSNYANWVQQKPGQAPRGLIGGTNKRAPGVPARFSGSLLGDKAALTLLGAQPEDEAEYFCALWYSNLWVFGGGTKLTVL
modifications: Cys 34 conjugated with Molecule I (+20K)
notes: also called VH-34 M34 (+20K)
B5: anti-CD3 antibody mutant VH-Y61C (antibody, V domains shown)
VH: EVQLVESGGGLVQPGGSLRLSCAASGFTFSTYAMNWVRQAPGKGLEWVGRIRSKYNNYATCYADSVKDRFTISRDDSKNSLYLQMNSLKTEDTAVYYCARHGNFGNSYVSWFAYWGQGTLVTVSS
VL: QTVVTQEPSLTVSPGGTVTLTCRSSTGAVTTSNYANWVQQKPGQAPRGLIGGTNKRAPGVPARFSGSLLGDKAALTLLGAQPEDEAEYFCALWYSNLWVFGGGTKLTVL
notes: Cys point mutant of the humanized anti-CD3 antibody; also called VH-61
B6: anti-CD3 antibody mutant VL-W93C (antibody, V domains shown)
VH: EVQLVESGGGLVQPGGSLRLSCAASGFTFSTYAMNWVRQAPGKGLEWVGRIRSKYNNYATYYADSVKDRFTISRDDSKNSLYLQMNSLKTEDTAVYYCARHGNFGNSYVSWFAYWGQGTLVTVSS
VL: QTVVTQEPSLTVSPGGTVTLTCRSSTGAVTTSNYANWVQQKPGQAPRGLIGGTNKRAPGVPARFSGSLLGDKAALTLLGAQPEDEAEYFCALCYSNLWVFGGGTKLTVL
notes: Cys point mutant of the humanized anti-CD3 antibody; also called VL-93
B7: anti-CD3 antibody mutant VL-N96C (antibody, V domains shown)
VH: EVQLVESGGGLVQPGGSLRLSCAASGFTFSTYAMNWVRQAPGKGLEWVGRIRSKYNNYATYYADSVKDRFTISRDDSKNSLYLQMNSLKTEDTAVYYCARHGNFGNSYVSWFAYWGQGTLVTVSS
VL: QTVVTQEPSLTVSPGGTVTLTCRSSTGAVTTSNYANWVQQKPGQAPRGLIGGTNKRAPGVPARFSGSLLGDKAALTLLGAQPEDEAEYFCALWYSCLWVFGGGTKLTVL
notes: Cys point mutant of the humanized anti-CD3 antibody; also called VL-96
B8: anti-CD3 antibody mutant VH-F112C (antibody, V domains shown)
VH: EVQLVESGGGLVQPGGSLRLSCAASGFTFSTYAMNWVRQAPGKGLEWVGRIRSKYNNYATYYADSVKDRFTISRDDSKNSLYLQMNSLKTEDTAVYYCARHGNFGNSYVSWCAYWGQGTLVTVSS
VL: QTVVTQEPSLTVSPGGTVTLTCRSSTGAVTTSNYANWVQQKPGQAPRGLIGGTNKRAPGVPARFSGSLLGDKAALTLLGAQPEDEAEYFCALWYSNLWVFGGGTKLTVL
notes: Cys point mutant of the humanized anti-CD3 antibody; also called VH-112
B9: anti-CD3 antibody mutant VH-W111C (antibody, V domains shown)
VH: EVQLVESGGGLVQPGGSLRLSCAASGFTFSTYAMNWVRQAPGKGLEWVGRIRSKYNNYATYYADSVKDRFTISRDDSKNSLYLQMNSLKTEDTAVYYCARHGNFGNSYVSCFAYWGQGTLVTVSS
VL: QTVVTQEPSLTVSPGGTVTLTCRSSTGAVTTSNYANWVQQKPGQAPRGLIGGTNKRAPGVPARFSGSLLGDKAALTLLGAQPEDEAEYFCALWYSNLWVFGGGTKLTVL
notes: Cys point mutant of the humanized anti-CD3 antibody; also called VH-111
B10: anti-CD3 antibody mutant VL-K55C (antibody, V domains shown)
VH: EVQLVESGGGLVQPGGSLRLSCAASGFTFSTYAMNWVRQAPGKGLEWVGRIRSKYNNYATYYADSVKDRFTISRDDSKNSLYLQMNSLKTEDTAVYYCARHGNFGNSYVSWFAYWGQGTLVTVSS
VL: QTVVTQEPSLTVSPGGTVTLTCRSSTGAVTTSNYANWVQQKPGQAPRGLIGGTNCRAPGVPARFSGSLLGDKAALTLLGAQPEDEAEYFCALWYSNLWVFGGGTKLTVL
notes: Cys point mutant of the humanized anti-CD3 antibody; also called VL-55
B11: anti-CD3 antibody mutant VH-S53C (antibody, V domains shown)
VH: EVQLVESGGGLVQPGGSLRLSCAASGFTFSTYAMNWVRQAPGKGLEWVGRIRCKYNNYATYYADSVKDRFTISRDDSKNSLYLQMNSLKTEDTAVYYCARHGNFGNSYVSWFAYWGQGTLVTVSS
VL: QTVVTQEPSLTVSPGGTVTLTCRSSTGAVTTSNYANWVQQKPGQAPRGLIGGTNKRAPGVPARFSGSLLGDKAALTLLGAQPEDEAEYFCALWYSNLWVFGGGTKLTVL
notes: Cys point mutant of the humanized anti-CD3 antibody; also called VH-53
B12: anti-CD3 antibody mutant VL-N54C (antibody, V domains shown)
VH: EVQLVESGGGLVQPGGSLRLSCAASGFTFSTYAMNWVRQAPGKGLEWVGRIRSKYNNYATYYADSVKDRFTISRDDSKNSLYLQMNSLKTEDTAVYYCARHGNFGNSYVSWFAYWGQGTLVTVSS
VL: QTVVTQEPSLTVSPGGTVTLTCRSSTGAVTTSNYANWVQQKPGQAPRGLIGGTCKRAPGVPARFSGSLLGDKAALTLLGAQPEDEAEYFCALWYSNLWVFGGGTKLTVL
notes: Cys point mutant of the humanized anti-CD3 antibody; also called VL-54
B13: anti-CD3 antibody mutant VL-R56C (antibody, V domains shown)
VH: EVQLVESGGGLVQPGGSLRLSCAASGFTFSTYAMNWVRQAPGKGLEWVGRIRSKYNNYATYYADSVKDRFTISRDDSKNSLYLQMNSLKTEDTAVYYCARHGNFGNSYVSWFAYWGQGTLVTVSS
VL: QTVVTQEPSLTVSPGGTVTLTCRSSTGAVTTSNYANWVQQKPGQAPRGLIGGTNKCAPGVPARFSGSLLGDKAALTLLGAQPEDEAEYFCALWYSNLWVFGGGTKLTVL
notes: Cys point mutant of the humanized anti-CD3 antibody; also called VL-56
B14: anti-CD3 antibody mutant VH-D68C (antibody, V domains shown)
VH: EVQLVESGGGLVQPGGSLRLSCAASGFTFSTYAMNWVRQAPGKGLEWVGRIRSKYNNYATYYADSVKCRFTISRDDSKNSLYLQMNSLKTEDTAVYYCARHGNFGNSYVSWFAYWGQGTLVTVSS
VL: QTVVTQEPSLTVSPGGTVTLTCRSSTGAVTTSNYANWVQQKPGQAPRGLIGGTNKRAPGVPARFSGSLLGDKAALTLLGAQPEDEAEYFCALWYSNLWVFGGGTKLTVL
notes: Cys point mutant of the humanized anti-CD3 antibody; also called VH-68
B15: anti-CD3 antibody mutant VH-M34C (antibody, V domains shown)
VH: EVQLVESGGGLVQPGGSLRLSCAASGFTFSTYACNWVRQAPGKGLEWVGRIRSKYNNYATYYADSVKDRFTISRDDSKNSLYLQMNSLKTEDTAVYYCARHGNFGNSYVSWFAYWGQGTLVTVSS
VL: QTVVTQEPSLTVSPGGTVTLTCRSSTGAVTTSNYANWVQQKPGQAPRGLIGGTNKRAPGVPARFSGSLLGDKAALTLLGAQPEDEAEYFCALWYSNLWVFGGGTKLTVL
notes: Cys point mutant of the humanized anti-CD3 antibody; also called VH-34
B16: anti-CD3 antibody mutant VL-Y34C (antibody, V domains shown)
VH: EVQLVESGGGLVQPGGSLRLSCAASGFTFSTYAMNWVRQAPGKGLEWVGRIRSKYNNYATYYADSVKDRFTISRDDSKNSLYLQMNSLKTEDTAVYYCARHGNFGNSYVSWFAYWGQGTLVTVSS
VL: QTVVTQEPSLTVSPGGTVTLTCRSSTGAVTTSNCANWVQQKPGQAPRGLIGGTNKRAPGVPARFSGSLLGDKAALTLLGAQPEDEAEYFCALWYSNLWVFGGGTKLTVL
notes: Cys point mutant of the humanized anti-CD3 antibody; also called VL-34
B17: anti-CD3 antibody mutant VH-F104C (antibody, V domains shown)
VH: EVQLVESGGGLVQPGGSLRLSCAASGFTFSTYAMNWVRQAPGKGLEWVGRIRSKYNNYATYYADSVKDRFTISRDDSKNSLYLQMNSLKTEDTAVYYCARHGNCGNSYVSWFAYWGQGTLVTVSS
VL: QTVVTQEPSLTVSPGGTVTLTCRSSTGAVTTSNYANWVQQKPGQAPRGLIGGTNKRAPGVPARFSGSLLGDKAALTLLGAQPEDEAEYFCALWYSNLWVFGGGTKLTVL
notes: Cys point mutant of the humanized anti-CD3 antibody; also called VH-104
B18: anti-CD3 antibody mutant VL-Y94C (antibody, V domains shown)
VH: EVQLVESGGGLVQPGGSLRLSCAASGFTFSTYAMNWVRQAPGKGLEWVGRIRSKYNNYATYYADSVKDRFTISRDDSKNSLYLQMNSLKTEDTAVYYCARHGNFGNSYVSWFAYWGQGTLVTVSS
VL: QTVVTQEPSLTVSPGGTVTLTCRSSTGAVTTSNYANWVQQKPGQAPRGLIGGTNKRAPGVPARFSGSLLGDKAALTLLGAQPEDEAEYFCALWCSNLWVFGGGTKLTVL
notes: Cys point mutant of the humanized anti-CD3 antibody; also called VL-94

T1 sequence (P07766 23-126 limits assumed, form in doubt): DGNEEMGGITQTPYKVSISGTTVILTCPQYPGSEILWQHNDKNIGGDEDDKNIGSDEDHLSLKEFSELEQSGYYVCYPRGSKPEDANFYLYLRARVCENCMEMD

One assay addresses T1, CD3 (antigen of the anti-CD3 antibody, coated in the ELISA of Examples 1-3) (Homo sapiens (Human), UniProt P07766 23-126).
T1 construct: also called antibody antigen
The experiment in a line: binding activity of the conjugated mutant compared with the wild-type antibody (ELISA as in Example 1). As for the experimental part: (§1) In the present invention, the activity of each mutant with a point mutation compared to that of its initial antibody is detected by ELISA. Specifically, the 96-well plates were coated with antibody antigen overnight, then blocked with 1% BSA blocking agent (Thermo Fisher) at 37° C. for 2 hours, and washed with PBST for 3 times. The corresponding antibody or the corresponding mutant was added for binding at 37° C. for 1 hour, and then washed with PBST for 3 times. HRP enzyme-linked anti-human IgG was added for binding at 37° C. for 1 hour, and washed with PBST for 3 times. TMB substrate (Solarbio., Inc.) was used to detect absorbance at 450 nm. The effect on mutant binding strength was calculated through EC50 mutation/EC50 wild-type.
A general note: ELISA stands for enzyme-linked immunosorbent assay.
For B1, the “Blocking fold after conjugation (+20K)” value came to 4 fold. In the case of B2, the “Blocking fold after conjugation (+20K)” value amounted to 13 fold. In the case of B3, the “Blocking fold after conjugation (+20K)” value worked out at 4 fold. On the same count and under the same terms, under B4 stands 5 fold.

The target of the next assay is T1, CD3 (antigen of the anti-CD3 antibody, …). Nature of the assay: ELISA, coated antigen, anti-human IgG-HRP; reference wild-type antibody. As for the experimental part: as §1
According to the above method, the binding activity of anti-CD3 antibody SP34 mutant with mutations at different position shown in Table 1 was detected.
With B5, the “Binding strength of mutants (EC50 mutant/EC50 wild-type)” value (“Binding strength of mutants” for short) is 5.1 fold. On the same count and under the same terms, under B6 stands 1.8 fold; under B7, 1 fold. Same read-out and setting: the figure for B8 is 1.2 fold; for B9 it is 2 fold. The same measure, in the same setting: the figure for B10 is 0.9 fold; for B11 it is 1.2 fold; for B12 it is 1 fold. Regarding B13, the “Binding strength of mutants” value was 1.5 fold. Still for that read-out and setting: under B14 stands 2 fold; under B15, 1.1 fold.

With B16, the “Binding strength of mutants” value was determined as 1.2 fold. Take B17: the “Binding strength of mutants” value came to 1 fold. Consider B18, for which the “Binding strength of mutants” value was 1 fold.
